Measured values taken from the DeepSol protein solubility set.

Assay: soluble on expression in E. coli; label from the status in PepcDB or PDB records

Row | Sequence | soluble on expression in E. coli
1 | MGSDKIHHHHHHMQMNLGLDVGYGDVKAVYQREGILEMLKFPTAIAYAEREVGDLSAFAGGEEYEYRGRKYFVGREALVGAFSTRSFEFMKRYSPLFVFKAVKKIHRRTGELVTDVAMGLPLSHYTEANLKELVPLLQRIEVGREVLELNARFYPQGLGVLADYRLSQAGDVNARTDRDMIILDIGFNTVDVIVVERGRIVKGESDTLERHGVSKISLDLAREIKVRMQLDLSEQESKDVLRQGRIRVYGAERDLAELVRESAEKYMDWLIQEVHSKWMARIQRAEKVIIAGGGAYYLQEHIPEEYLPLVHVPDHPEYANARGFLKALDVESGK | not soluble
2 | MTRTPLTLEQLNALSDDAFTEHFAGVLEHSPHYARRAAAGRPFADVEEVAAAFARAVAADEPGAQVQLIRAHPDLAGKAALAGELTAESASEQTSAGLDRLSPEEYAEFQRLNAAYHERFGLPYVVCVRENTKDTIFEGARRRLTHTQEEEQAAALHEIGRIARLRILDLVQEGRQEKRMDGRLIRIPLEHHHHHH | soluble
3 | MYWERGLHMYKASAVVPTGYVRVGNTAPLVGEDTQRYASFWGDGYDVYRQLRWQQIPEKQRKAFKKAAKSKKTVMFAGREYGISKQNLSDVWDDFEDAMELKAFPCLSSLFLTKWHKNLYDSGLTKTSTALPRLSSKRTIL | not soluble
4 | MEPSGGEQEPGAVRFLDLPWEDVLLPHVLNRVPLRQLLRLQRVSRAFRSLVQLHLAGLRRFDAAQVGPQIPRAALARLLRDAEGLQELALAPCHEWLSDEDLVPVLARNPQLRSVALGGCGQLSRRALGALAEGCPRLQRLSLAHCDWVDGLALRGLADRCPALEELDLTACRQLKDEAIVYLAQRRGAGLRSLSLAVNANVGDAAVQELARNCPELHHLDLTGCLRVGSDGVRTLAEYCPVLRSLRVRHCHHVAESSLSRLRKRGVDIDVEPPLHQALVLLQDMAGFAPFVNLQV | soluble
5 | MGSDKIHHHHHHMKIEGLFNKYYNSFTANDKYICECILNHKEDCIKLSIDEFADKYHISTSALSRFAQKLQLPGYSELRVIIRLNETEVEYKNQSKHQLMDCYNKVIDDIEKKDCSIMFERMKKANRIIVFGEGYSQERVAKEMKRIFLPTGKIIYDVYGYDMIQALNHFIKTDDMIFFISLNGDASTIIDFAKEMRMKGIYMVSITKMISNPLARLCDENLYIQSISISVDKQLDYDVTTPYFILIELLYIKYKMYLESEHIPRK | not soluble
6 | MTKERFVISRRRTGFGDCLWSLASAWSYAQRTGRTLVIDWRGSCYVEQPFSNAFPAFFEPVEDIAGVPVICDDRVNQLSFPGPFFPRWWNRPSIDCINRPDEQIFRERDELTELFQAREDSEANTIVCDACLMWRCSEEAERLIFRNIKLRSEIRARIDALYEEHFSGHSIIGVHVRHGNGEDIMEHAPYWADSELALHQVCMAIRKAKALSYPKPVKVFLCTDSAQVLDQVSGLFPDVFAVPKRFQADRAGPLHSAEMGIEGGASALIDMYLLARCATVIRFPPTSAFTRYARLLVPRIIEFDLSNPGHLTMIDNPYEHFAASHHHHHH | soluble
7 | MSLNLTVSDVVELMGDAVVQTGEASLQTQPVEWVSVIETPVENFVRENELVLTTGIGCGEDEERFLQFVHDIAASNAAALAIAMGRFVKHIPDRVLHYASTHGLILLEIPWELRFADLIQSVLLQMEQRKQKEIEQAESLRKQLLEMEGHHHHHH | soluble
8 | MSSPDSAAHQFSICRVCDDSNGQPHYGTICCPSCKGFFRRVYMSDKKFECYRGNMCVIQKGTRNICRACRYKKCLQVGMNVKGSTTRHNLRINIYVQTSAESTPKSSKDTEMGVAEAMEMAQVYMNLEKYCENNYCESNMCREEENRLIDRMLSSTVHELIQKTSPQCPRFKRDWKPLEMLNLENFCRSWSRSIVHFLDFATRFPVFNQLSHIDKRAWFISRLAPCSFLTMAYQTRIEMCEGLLFGCSNVFPLKSDRWIAVETEHLRGLFSSITETMFSFVIYPMMNLKITDLHYSLLKACVFFSAGIVVTSVSDKGMEIMRNEYTKHKNALMKLLMNGVERFSQQTDILFQIQDVQNTLEHHKHLKSQQI | soluble
9 | MGSDKIHHHHHHMATVLIVGRPNVGKSTLFNKLVKKKKAIVEDEEGVTRDPVQDTVEWYGKTFKLVDTCGVFDNPQDIISQKMKEVTLNMIREADLVLFVVDGKRGITKEDESLADFLRKSTVDTILVANKAENLREFEREVKPELYSLGFGEPIPVSAEHNINLDTLLETIIKKLEEKGLDLESKPEITDAIKVAIVGRPNVGKSTLFNAILNKERALVSPIPGTTRDPVDDEVFIDGRKYVFVDTAGLRRKSRVEPRTVEKYSNYRVVDSIEKADVVVIVLDATQGITRQDQRIAGLVERRGRASVVVFNKWDLVEHREKRYDEFTKLFREKLYFIDYSPLIFTSADKGWNIDRVIDAINLAYASYTTKVPSSAINSALQKVLAFTNLPRGLKIFFGLQVDIKPPTFLFFVNSIEKVKNPQKIFLRKLIRDYVFPFEGSPIFLKFKRSR | not soluble
10 | MSDATNNAVLVRNLSPEVTKQTLLDFFSFCGEISAVKIRPSVGEGGSSSSGSPTEAMEALVIFENQSAKKTALVLDSATLKKRKISVMDATEELVSSFKDVREVDLARDSTDVPETATARQERLQGLREEFDRAIKRASDKLSDFNEKHRITEKVQEFGDLTKRKTQEINEQYRLTERAREGWQTVREKTRELDERLHLSESARDGWRSLKASVSKIMQKDRGGEVDKA | soluble
11 | MESGVPLVVVLRDVLEYVDDTSEAQYAINTDGVLVNGDSVGDVNRPIGMFDILAFPDRDEYYRVFPDEGGRLGLTEIDADAAGSKLNKVTDKTTVSGGRTQLNFHDGSNLALDEDAYAGGDSVVVDTDTNEIVAHFQYEEGALVTAVAGQHAGDIGEIAEINVQPGSASNTVRVDDENGGFETIAEYVVVIDENFLEHHHHHH | soluble
12 | GMSSDVQKGDNLETPGARDLLLQTASNIMREGDVVDISLSELSLRSGLNSALVKYYFGNKAGLLKALLDRDMENIVKSVDALLAKDDMSPEAKLRRHISKCIDTYYDYPYLNRLLMRLVRDSDEAEAKRIADQYLLPLHRAYNRFIGEGVKAGVFRPINPQLFYFTVTGAADRFFSARLVLKHCFDQDTLTEQLRDSYREHTVDFIMAGILAH | soluble
13 | MISIVGIGSGNRVEELTIKAYNTLKNSDIGIYPGNFIGEELKELFEDKTMFTGRDITSEKIKNIFHNNRDKNICLMVSGDPALYSGQFNTNLCLDEHIKWFNEHNYNYEMIPGLSSLSILCAKKSIDLTPFSKTQNVFITSIERLRDLKCFNYTELKSILSTKPVLALYQSLKEFDNIKSLLMEFYPPTTKVIFAQSLSWSNECIFETDLKTLNETESTTSQFNDQTLILVYPSTILTIK | not soluble
14 | MSSNLTSNEMSSTSAIVEPPEAVKGNERDKSTRRSTSQVVRPEKHEVENALEDQCSSSSLPKEAQYYAKLDKKLEGKDPRSQFYEAVRLSADIFAHKFEKAVCSRQTFEPTNSIIKVLNTAEEEMLHEKVVPLPVSSKLQYYLNRGRYDTIFDRDEQLQRTADPMADEPDHVEKRVTSILEQASREMEEGEVEPVFYDGSDEDQELPIDLGAMRNLQRTNKFAARSSRMAARRGGRPGYRGAFRGAARGAPSRRPAPAAEVAPETPVAAPMAPAAPAAPATPEAAPAAEVMDTSIATEMPQESAVDLSNVSAATEMDTSKEGEASRPTSEKKKKIRTTEMDRLMSMDLGPKDGGRVGELGHMWPESRRRPAAPLPETPAAQPRKSLPRRAAEKKKPEDSDAAEEQEVEMEVDNDASTSTPRNARGGRGGGNRRGSRRGQKRTSGGSGKLVEPKKEPVDEPAEKIPKRSEAAPEVPATATTKEAPPSTSSSPPDAPATPATPASSDSRDSPRKIRAMIFSLTGSPPESETPPVLQQEQVISTAAPTAGRHPNIIQQVPHINRIPPQPLRRLTAPQAPPASQPEEPPVQQTVPVVKVELASAPAPIVRDPQSTEPVPPAMPTLVENNHEATLILPPNKTSDYTRWNAQDLINWVRLLITNNVDSTIAIMVREEFDGETLACLVLDDDFRKEVPIPYGHYKKMKIYGTEVLNHYRTEKYQADLRKFHEELAAWKAQQR | not soluble
15 | MIFYFSGTGNSKWIAEQIAKAQNEVLVFMPNAIRDGIEEFVLADDEKVGFVFPVYSWGPPLSVLRFLDWITLSNYHSQYVFFVCSCGDDTGLTEELFRRALSRKGMECNAGFSVAMPNNYVLLPGFDVDKKELEKKKLDEAVGRVEEINDSITGKKIGFHCNEGSFPWFKTKVLNPLFNRFMTSAKPFYATDDCIGCKRCERICPVGNVVMIGWRPVWGMDCTSCLACYHVCPKHAVQYGRRTKRKGQYLNPNVSISHEAAAQLEHHHHHH | not soluble
